Experiments:
[1] = target: T1, PRLR stably expressed on Ba/F3 cells (Ba/F3-PRLR) (UniProt P16471 25-622, limits assumed); experiment: cell-based or functional assay
T1 sequence (looked up): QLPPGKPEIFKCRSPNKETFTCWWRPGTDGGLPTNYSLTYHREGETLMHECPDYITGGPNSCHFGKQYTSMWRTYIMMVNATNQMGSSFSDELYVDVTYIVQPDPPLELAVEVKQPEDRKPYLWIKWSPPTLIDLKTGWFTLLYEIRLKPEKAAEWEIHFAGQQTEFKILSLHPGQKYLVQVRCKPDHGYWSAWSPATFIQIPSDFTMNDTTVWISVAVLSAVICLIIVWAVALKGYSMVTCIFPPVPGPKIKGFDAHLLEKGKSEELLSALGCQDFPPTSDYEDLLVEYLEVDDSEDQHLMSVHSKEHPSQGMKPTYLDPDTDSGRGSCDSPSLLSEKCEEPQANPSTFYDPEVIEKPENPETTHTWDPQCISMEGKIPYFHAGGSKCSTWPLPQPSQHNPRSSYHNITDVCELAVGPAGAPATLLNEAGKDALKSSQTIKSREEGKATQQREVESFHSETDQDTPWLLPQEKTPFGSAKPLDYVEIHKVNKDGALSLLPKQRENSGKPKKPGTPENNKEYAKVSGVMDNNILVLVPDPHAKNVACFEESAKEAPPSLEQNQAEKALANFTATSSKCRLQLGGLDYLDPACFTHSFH

[2] = target: T1, PRLR stably expressed on Ba/F3 cells …; experiment: cell-based or functional assay; remark: listed apart in the source
[3] = target: T2, Biotinylated prolactin receptor BirATag-Ser-PRLR (1-210) (human, UniProt P16471 25-234, biotinylated (BirA tag, biotin added during expression in E. coli)); experiment: SPR (Biacore); biotinylated BirATag-Ser-PRLR (1-210) amine-coupled to CM5 chip, control injected at 3.13-50 nM; STDEV 1.63; one value under a double label
T2 construct: range 1-210; also called BirA-Ser-PRLR (1-210); not shown: BirA tag (biotin acceptor tag)
T2 sequence: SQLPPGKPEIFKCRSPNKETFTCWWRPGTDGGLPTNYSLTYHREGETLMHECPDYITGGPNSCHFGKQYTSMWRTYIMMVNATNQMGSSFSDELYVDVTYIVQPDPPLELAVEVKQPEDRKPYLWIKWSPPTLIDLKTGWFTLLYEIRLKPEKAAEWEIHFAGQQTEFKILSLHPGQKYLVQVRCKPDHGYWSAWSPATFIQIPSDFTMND
Description: (§1) Biotinylated prolactin receptor BirATag-Ser-PRLR (1-210) was diluted to 20 μg/ml in 10 mM sodium acetate pH 4.0 (Biacore BR-1003-49) and immobilized on a CM5 chip (Biacore BR-1006-68) with the immobilization reagents 1-ethyl-3-(3-dimethylaminopropyl) carbodiimide hydrochloride (EDC), N-hydroxysuccinimide (NHS) and 1.0 M ethanolamine-HCl pH 8.5 (Biacore BR1000-50). The immobilization level was 1500 RU. The PRL variants prepared as described in Example 5 were diluted to a series of concentrations as following: 3.13/6.25/12.5/25/50 nM and run through the PRLR immobilized chip using HBS-EP (10 mM HEPES pH 7.4; 150 mM NaCl; 3 mM EDTA; 0.005% v/v Tween-20) as the running buffer under the following conditions: […]

[4] = target: T2, Biotinylated prolactin receptor …; experiment: Biacore SPR, BirATag-Ser-PRLR (1-210) immobilised on a CM5 chip, PRL analogues 1.6-25 nM
Description: as §1, with “on the” for “on a”, “PRL analogues” for “PRL variants prepared as described in Example 5”, “following: 1.6/3.13/6.25/12.5/25” for “following: 3.13/6.25/12.5/25/50”

[5] = target: T2, Biotinylated prolactin receptor …; experiment: SPR (Biacore); BirATag-Ser-PRLR (1-210) on CM5 chip, analogue injected at 1.6-25 nM (FIG. 5)
Description: as §1, with “on the” for “on a”, “PRL analogues” for “PRL variants prepared as described in Example 5”, “following: 1.6/3.13/6.25/12.5/25” for “following: 3.13/6.25/12.5/25/50”

[6] = target: T2, Biotinylated prolactin receptor …; experiment: SPR (Biacore); biotinylated BirATag-Ser-PRLR (1-210) amine-coupled to CM5 chip, variant injected at 3.13-50 nM; STDEV 0.17
Description: as §1

[7] = target: T2, Biotinylated prolactin receptor …; experiment: SPR (Biacore); biotinylated BirATag-Ser-PRLR (1-210) amine-coupled to CM5 chip, variant injected at 3.13-50 nM; STDEV 0.042
Description: as §1

[8] = target: T2, Biotinylated prolactin receptor …; experiment: SPR (Biacore); biotinylated BirATag-Ser-PRLR (1-210) amine-coupled to CM5 chip, variant injected at 3.13-50 nM; STDEV 0.28
Description: as §1

[9] = target: T2, Biotinylated prolactin receptor …; experiment: SPR (Biacore); biotinylated BirATag-Ser-PRLR (1-210) amine-coupled to CM5 chip, variant injected at 3.13-50 nM; STDEV 0.29
Description: as §1

B1: wild type human prolactin (ligand)
chain: LPICPGGAARCQVTLRDLFDRAVVLSHYIHNLSSEMFSEFDKRYTHGRGFITKAINSCHTSSLATPEDKEQAQQMNQKDFLSLIVSILRSWNEPLYHLVTEVRGMQEAPEAILSKAVEIEEQTKRLLEGMELIVSQVHPETKENEIYPVWSGLPSLQMADEESRLSAYYNLLHCLRRDSHKIDNYLKLLKCRIIHNNNC
[1]
  EC50, Ba/F3-PRLR proliferation assay: 0.102 nM
  EC50, stimulation (proliferation) assay, Ba/F3-PRLR cell line PRLR-09: 0.054 nM
  EC50, stimulation (proliferation) assay, Ba/F3-PRLR cell line PRLR-32: 0.0375 nM

B2: PRL G129R (ligand)
chain: LPICPGGAARCQVTLRDLFDRAVVLSHYIHNLSSEMFSEFDKRYTHGRGFITKAINSCHTSSLATPEDKEQAQQMNQKDFLSLIVSILRSWNEPLYHLVTEVRGMQEAPEAILSKAVEIEEQTKRLLERMELIVSQVHPETKENEIYPVWSGLPSLQMADEESRLSAYYNLLHCLRRDSHKIDNYLKLLKCRIIHNNNC
notes: also called [2H,15N]PRL-G129R; [2H,13C,15N]PRL-G129R
[1]
  EC50, Ba/F3-PRLR proliferation assay: 3.2 nM
  highest proliferation rate relative to wtPRL, Ba/F3-PRLR proliferation assay: 12 % of wtPRL
[2]
  EC50 (so in the source); inhibition of proliferation of Ba/F3-PRLR cells stimulated with 1 nM wtPRL, OD490nM: 64.6 nM
  LOGEC50 (same fit): -7.19 LogM
[3]
  Kd: 13.9 nM

B3: PRL S61A, Q71A, Q73A, G129R (ligand)
prolactin variant: LPICPGGAARCQVTLRDLFDRAVVLSHYIHNLSSEMFSEFDKRYTHGRGFITKAINSCHTASLATPEDKEAAAQMNQKDFLSLIVSILRSWNEPLYHLVTEVRGMQEAPEAILSKAVEIEEQTKRLLERMELIVSQVHPETKENEIYPVWSGLPSLQMADEESRLSAYYNLLHCLRRDSHKIDNYLKLLKCRIIHNNNC
notes: It is not in the first reading's list; also called rational designed mutant
[4]
  binding result: binds

B4: [PRL Q73L, M75T, N76S, F80L, G129R] (ligand)
chain: LPICPGGAARCQVTLRDLFDRAVVLSHYIHNLSSEMFSEFDKRYTHGRGFITKAINSCHTSSLATPEDKEQALQTSQKDLLSLIVSILRSWNEPLYHLVTEVRGMQEAPEAILSKAVEIEEQTKRLLERMELIVSQVHPETKENEIYPVWSGLPSLQMADEESRLSAYYNLLHCLRRDSHKIDNYLKLLKCRIIHNNNC
notes: also called HTPN-62
[1]
  antagonist activity relative to [PRL G129R], Ba/F3-PRLR competition assay against 1 nM wtPRL: ~4 fold
[2]
  EC50 (so in the source); inhibition of proliferation of Ba/F3-PRLR cells stimulated with 1 nM wtPRL, OD490nM: 13.8 nM
  LOGEC50 (same fit): -7.86 LogM
[5]
  fold higher affinity than wt PRL and [PRL G129R]: ~2 fold

B5: [PRL S33A, Q73L, G129R, K190R] (ligand)
chain: LPICPGGAARCQVTLRDLFDRAVVLSHYIHNLASEMFSEFDKRYTHGRGFITKAINSCHTSSLATPEDKEQALQMNQKDFLSLIVSILRSWNEPLYHLVTEVRGMQEAPEAILSKAVEIEEQTKRLLERMELIVSQVHPETKENEIYPVWSGLPSLQMADEESRLSAYYNLLHCLRRDSHKIDNYLKLLRCRIIHNNNC
[5]
  fold higher affinity than wt PRL and [PRL G129R]: ~2 fold

B6: Ser-PRL Q73L, G129R, K190R (ligand)
chain: SLPICPGGAARCQVTLRDLFDRAVVLSHYIHNLSSEMFSEFDKRYTHGRGFITKAINSCHTSSLATPEDKEQALQMNQKDFLSLIVSILRSWNEPLYHLVTEVRGMQEAPEAILSKAVEIEEQTKRLLERMELIVSQVHPETKENEIYPVWSGLPSLQMADEESRLSAYYNLLHCLRRDSHKIDNYLKLLRCRIIHNNNC
[6]
  Kd: 2.6 nM

B7: Ser-PRL G129R (ligand)
chain: SLPICPGGAARCQVTLRDLFDRAVVLSHYIHNLSSEMFSEFDKRYTHGRGFITKAINSCHTSSLATPEDKEQAQQMNQKDFLSLIVSILRSWNEPLYHLVTEVRGMQEAPEAILSKAVEIEEQTKRLLERMELIVSQVHPETKENEIYPVWSGLPSLQMADEESRLSAYYNLLHCLRRDSHKIDNYLKLLKCRIIHNNNC
notes: The control row gives one KD under the double label 'PRL G129R/Ser-PRL G129R'
[3]
  Kd: 13.9 nM

B8: Ser-PRL G129R, K190R, I194V, H195Y, N196R, N197D (ligand)
chain: SLPICPGGAARCQVTLRDLFDRAVVLSHYIHNLSSEMFSEFDKRYTHGRGFITKAINSCHTSSLATPEDKEQAQQMNQKDFLSLIVSILRSWNEPLYHLVTEVRGMQEAPEAILSKAVEIEEQTKRLLERMELIVSQVHPETKENEIYPVWSGLPSLQMADEESRLSAYYNLLHCLRRDSHKIDNYLKLLRCRIVYRDNC
[7]
  Kd: 3.2 nM

B9: Ser-PRL Q73L M75T N76S F80L G129R (ligand)
chain: SLPICPGGAARCQVTLRDLFDRAVVLSHYIHNLSSEMFSEFDKRYTHGRGFITKAINSCHTSSLATPEDKEQALQTSQKDLLSLIVSILRSWNEPLYHLVTEVRGMQEAPEAILSKAVEIEEQTKRLLERMELIVSQVHPETKENEIYPVWSGLPSLQMADEESRLSAYYNLLHCLRRDSHKIDNYLKLLKCRIIHNNNC
[8]
  Kd: 3.6 nM

B10: Ser-PRL S33D, Q73L, M75T, N76S, F80L, G129R, K190R (ligand)
chain: SLPICPGGAARCQVTLRDLFDRAVVLSHYIHNLDSEMFSEFDKRYTHGRGFITKAINSCHTSSLATPEDKEQALQTSQKDLLSLIVSILRSWNEPLYHLVTEVRGMQEAPEAILSKAVEIEEQTKRLLERMELIVSQVHPETKENEIYPVWSGLPSLQMADEESRLSAYYNLLHCLRRDSHKIDNYLKLLRCRIIHNNNC
[6]
  Kd: 3.1 nM

B11: Ser-PRL S38I, D68N, G129R, S179T, I182V (ligand)
chain: SLPICPGGAARCQVTLRDLFDRAVVLSHYIHNLSSEMFIEFDKRYTHGRGFITKAINSCHTSSLATPENKEQAQQMNQKDFLSLIVSILRSWNEPLYHLVTEVRGMQEAPEAILSKAVEIEEQTKRLLERMELIVSQVHPETKENEIYPVWSGLPSLQMADEESRLSAYYNLLHCLRRDTHKVDNYLKLLKCRIIHNNNC
[9]
  Kd: 3.1 nM

Source: patent US20100249029A1 (Novo Nordisk, published 2010)
